T1: TGFβ2 (transforming growth factor beta 2) (Homo sapiens, UniProt P61812 SEQ:1-112)
T1 sequence: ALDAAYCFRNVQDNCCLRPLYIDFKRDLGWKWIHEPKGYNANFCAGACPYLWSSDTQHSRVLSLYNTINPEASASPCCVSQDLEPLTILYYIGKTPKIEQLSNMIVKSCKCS

B1: ChD70-m3 (ssRNA)
RNA: GGGUGCCUUUUGCCUAGGUUGUGAUUUGUAACCUUCUGCCCA
modifications: 2'-OMe at 21, 23-24, 28
B2: ChD70-m5 (ssRNA)
RNA: GGGUGCCUUUUGCCUAGGUUGUGAUUUGUAACCUUCUGCCCA
modifications: 2'-OMe at 1, 21, 23-24, 28
B3: ChD70-m15 (ssRNA)
RNA: GGGUGCCUUUUGCCUAGGUUGUGAUUUGUAACCUUCUGCCCA
modifications: 2'-OMe at 21, 23-24, 28, 38
B4: ChD70-m11 (ssRNA)
RNA: GGGUGCCUUUUGCCUAGGUUGUGAUUUGUAACCUUCUGCCCA
modifications: 2'-OMe at 17, 21, 23-24, 28
B5: ChD70-m16 (ssRNA)
RNA: GGGUGCCUUUUGCCUAGGUUGUGAUUUGUAACCUUCUGCCCA
modifications: 2'-OMe at 21, 23-24, 28, 42
B6: ChD70-m6 (ssRNA)
RNA: GGGUGCCUUUUGCCUAGGUUGUGAUUUGUAACCUUCUGCCCA
modifications: 2'-OMe at 2, 21, 23-24, 28
B7: ChD70-m12 (ssRNA)
RNA: GGGUGCCUUUUGCCUAGGUUGUGAUUUGUAACCUUCUGCCCA
modifications: 2'-OMe at 18, 21, 23-24, 28
B8: ChD70-m10 (ssRNA)
RNA: GGGUGCCUUUUGCCUAGGUUGUGAUUUGUAACCUUCUGCCCA
modifications: 2'-OMe at 16, 21, 23-24, 28
B9: ChD70-m7 (ssRNA)
RNA: GGGUGCCUUUUGCCUAGGUUGUGAUUUGUAACCUUCUGCCCA
modifications: 2'-OMe at 3, 21, 23-24, 28
B10: ChD70-m18 (ssRNA)
RNA: GGGUGCCUUUUGCCUAGGUUGUGAUUUGUAACCUUCUGCCCA
modifications: 2'-OMe at 1-3, 16-18, 21, 23-24, 28, 30, 42; 3'-3' U cap
B11: ChD70-m14 (ssRNA)
RNA: GGGUGCCUUUUGCCUAGGUUGUGAUUUGUAACCUUCUGCCCA
modifications: 2'-OMe at 21, 23-24, 28, 31
B12: NX22385 (ssRNA)
RNA: UGUGAAUAUUAGAGAGUCUGUAUAGCUCUACCCC
modifications: 2'-F C and U; 3'-3' dT
B13: NX22425 (ssRNA)
RNA: UGUGAAUAUUAGAGAGUCUGUAUAGCUCUACCCC
modifications: 2'-F C and U; 2'-OMe at lowercase a,g of UgUgaaUAUUagagagUCUGUAUAgCUCUaCCCC; 3'-3' dT
B14: NX22424 (ssRNA)
RNA: UGUGAAUAUUAGAGAGUCUGUAUAGCUCUACCCC
modifications: 2'-F C and U; 2'-OMe at lowercase a,g of UgUgAAUAUUaGagagUCUGUAUAgCUCUaCCCC; 3'-3' dT
B15: 8.48 (ssRNA)
RNA: GGGAGGACGAUGCGGAAGUAACGUUGAAGUAAAAUUCGUUCUCUCGGUAUUGGCCAGACGACUCGCCCGA
modifications: 2'-F C and U; 2'-OH A and G
B16: 8.20 (ssRNA)
RNA: GGGAGGACGAUGCGGUCUCAACGAAGAACAUCGUUGGAUACUGUUUGUCCCGCCCCAGACGACUCGCCCGA
modifications: 2'-F C and U; 2'-OH A and G
B17: 8.8 (ssRNA)
RNA: GGGAGGACGAUGCGGAUAGAUCGGUCCGAUAAGUCUUUCAUCUUUACCUGGCCCCCAGACGACUCGCCCGA
modifications: 2'-F C and U; 2'-OH A and G
B18: 8.18 (ssRNA)
RNA: GGGAGGACGAUGCGGUCUACCCUUUAGCAGUAUUUGUUUCCAUCGUUGUUUGCCCCAGACGACUCGCCCGG
modifications: 2'-F C and U; 2'-OH A and G
B19: 8.12 (ssRNA)
RNA: GGGAGGACGAUGCGGUCCAUCAACAAUCUUAUCAUUAUGUUUUUCCUUCCCGCCCCAGACGACUCGCCCGA
modifications: 2'-F C and U; 2'-OH A and G
B20: 8.6 (ssRNA)
RNA: GGGAGGACGAUGCGGAAACCAAAAGACCACAUCUCCAUACUCACGCUCUGCCCCAGACGACUCGCCCGA
modifications: 2'-F C and U; 2'-OH A and G
B21: 8.40 (ssRNA)
RNA: GGGAGGACGAUGCGGCCCAUUAGUCCUCAUUAGUCCCCUGUGCCCCAGACGACUCGCCCGA
modifications: 2'-F C and U; 2'-OH A and G
B22: 8.9 (ssRNA)
RNA: GGGAGGACGAUGCGGAAGUAACGUUGAAGUAAAAUUCGUUCUCUCGGUAUUUGGCCAGACGACUCGCCCGA
modifications: 2'-F C and U; 2'-OH A and G
B23: 8.5 (ssRNA)
RNA: GGGAGGACGAUGCGGUCCUAACCAUCACAAUCUCAAUUCUUAUAUUUUCCCGCCCCAGACGACUCGCCCGA
modifications: 2'-F C and U; 2'-OH A and G
B24: 21a-4(ML-110) (ssRNA)
RNA: GGGGAGCGGCGUUGUUUAGUCGUAUGUAUAUACUAAGUCCGC
modifications: 2'-F C and U
B25: 21a-4(ML-109) (ssRNA)
RNA: GGGGAGCGGCGUUGUUUAUGUAUAAGUCCGCUU
modifications: 2'-F C and U
B26: 21a-4Δ5',3' (ssRNA)
RNA: GGCGUUGUUUAGUCGUAUGUAUAUACUAAGUCCGCUUGUCCCCA
modifications: 2'-F C and U
B27: 21a-4(ML-91) (ssRNA)
RNA: GGGGAGCGGCGUUGUUUAGUCGUAUGUAUAUACUAAGUCCGCUU
modifications: 2'-F C and U
B28: 21a-4(ML-108) (ssRNA)
RNA: GGGGAGCGGCGUUGUUUCGUAUGUAUAUAAGUCCGCUU
modifications: 2'-F C and U
B29: 21a-4(ML-92) (ssRNA)
RNA: GGGGAGCGGCGUUGUUGAAAAGUCCGCUU
modifications: 2'-F C and U
B30: 21a-4(ML-111) (ssRNA)
RNA: GGGGAGCGGCGUUGUUUAGUCGUAUGUAUAUACUAAGU
modifications: 2'-F C and U
B31: NX22426 (ssRNA)
RNA: GGAGAUAUUACAGAGUCUGUAUAGCUGUACUCC
modifications: 2'-F C and U; 2'-OMe at lowercase a,g of ggaga-UAUUaCagagUCUgUAUAgCUgUaCucc with G of CUGUAUA 2'-OH; 3'-3' dT
B32: NX22356 (ssRNA)
RNA: GGAGGUUAUUACAGAGUCUGUAUAGCUGUACUCC
modifications: 2'-F C and U; 2'-OMe at lowercase a,g of ggagGUUAUUACAGAGUCUGUAUAGCuGUACUCC; 3'-3' dT
B33: NX22357 (ssRNA)
RNA: GGAGGUUAUUACAGAGUCUGUAUAGCUGUACUCC
modifications: 2'-F C and U; 2'-OMe at lowercase a,g of GGAGgUUaUUaCAGAGUCUGUAUAGCUGUACUCC; 3'-3' dT
B34: NX22358 (ssRNA)
RNA: GGAGGUUAUUACAGAGUCUGUAUAGCUGUACUCC
modifications: 2'-F C and U; 2'-OMe at lowercase a,g of GGAGGUUAUUACagagUCUGUAUAGCUGUACUCC; 3'-3' dT
B35: NX22360 (ssRNA)
RNA: GGAGGUUAUUACAGAGUCUGUAUAGCUGUACUCC
modifications: 2'-F C and U; 2'-OMe at lowercase a,g of GGAGGUUAUUACAGAGUCUGUAUAgCUgUaCUCC; 3'-3' dT
B36: NX22420 (ssRNA)
RNA: GGAGGUUAUUACAGAGUCUGUAUAGCUGUACUCC
modifications: 2'-F C and U; 2'-OMe at all purines except A8, G20, A22, A24; 3'-3' dT
B37: NX22417 (ssRNA)
RNA: GGAGGUUAUUACAGAGUCUGUAUAGCUGUACUCC
modifications: 2'-F C and U; 2'-OMe at all purines except G20, A22, A24; 3'-3' dT
B38: NX22421 (ssRNA)
RNA: GGAGGUUAUUACAGAGUCUGUAUAGCUGUACUCC
modifications: 2'-F C and U; 2'-OMe at all purines except G5, A8, A11, G20, A22, A24; 3'-3' dT
B39: NX22377 (ssRNA)
RNA: GGAGGUUAUUACAGAGUCUGUAUAGCUGUACUCC
modifications: 2'-F C and U; 2'-OMe at lowercase a,g of ggaggUUaUUaCAGAGUCUGUAUAgCUgUaCucc; 3'-3' dT
B40: NX22427 (ssRNA)
RNA: GGGGUUAUUACAGAGUCUGUAUAGCUGUACCC
modifications: 2'-F C and U; 2'-OMe at lowercase a,g of gg-ggUUAUUaCagagUCUGUAUAgCUgUaC-CC; 3'-3' dT
B41: 14i-1Δ5',3' (ssRNA)
RNA: GGAAGUAACGUUGUAGUAAAAUUCGUUCUCUCGGCAUUUGGCCA
modifications: 2'-F C and U
B42: 14i-1t5-41 (ssRNA)
RNA: GGGAGGAUGCGGAAGUAACGUUGUAGUAAAAUUCCUUC
modifications: 2'-F C and U
B43: 14i-1t5-38 (ssRNA)
RNA: GGGAGGAUGCGGAAGUAACGUUGUAGUAAAAUUCC
modifications: 2'-F C and U
B44: 14i-1(ML-89) (ssRNA)
RNA: GGGAGGAGUAACGUUGUAGU
modifications: 2'-F C and U
B45: 14i-1t5-35 (ssRNA)
RNA: GGGAGGAUGCGGAAGUAACGUUGUAGUAAAAU
modifications: 2'-F C and U
B46: 14i-1(ML-86) (ssRNA)
RNA: GGGAGGAUGCGGAAGUAACGUUGUAGUUCCUUC
modifications: 2'-F C and U
B47: 14i-1(ML-87) (ssRNA)
RNA: GGGAGGAUGCGGAAGUAACGUUGUAGU
modifications: 2'-F C and U

The target in one data set is TGFβ1 (transforming growth factor beta 1) (Homo sapiens, UniProt P01137 SEQ:1-112). The experiment in a line: CD70 parent +++. The note with it: chain copies: 2 (homodimer, inferred).
TGFβ1 (transforming growth factor beta 1), sequence (P01137 279-390): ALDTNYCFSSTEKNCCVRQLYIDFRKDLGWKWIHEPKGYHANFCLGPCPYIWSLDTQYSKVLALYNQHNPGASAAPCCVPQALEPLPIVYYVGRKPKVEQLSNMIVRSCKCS
Take B1: the binding result is given as “binds”.

As to B2, the binding result was “binds”.

Regarding B3, the binding result is “binds”.

With B4, the binding result is “binds”.

B5: the binding result was “binds”.

Turning to B6, the binding result is given as “binds”.

Regarding B7, the binding result is reported as “binds”.

B8: the binding result is listed as “binds”.

B9: the binding result is reported as “binds”.

Consider B10, for which the binding result was “binds”.

B11: the binding result was “binds”.

The target in the next data set is T1, TGFβ2 (transforming growth factor beta …). The experiment in a line: filter. The conditions noted are these: chain copies: 2 (inferred, homodimer).
Regarding B12, the binding signal is 0.4 x Kd of NX22284.

As for B13, the binding signal is 1.5 x Kd of NX22284.

For B14, the binding signal is 0.6 x Kd of NX22284.

For another data set the target is unchanged. The experiment in a line: filter. The note with it: chain copies: 2 (homodimer, stated).
With B15, the binding result was “binds”.

On to B16, for which the binding result is given as “no binding”.

As for B17, the binding result is “no binding”.

As to B18, the binding result was “no binding”.

On to B19, for which the binding result is given as “no binding”.

As to B20, the binding result was “no binding”.

In the case of B21, the binding result is on record as “no binding”.

Take B22: the binding result is given as “binds”.

As for B23, the binding result is “no binding”.

The target is the same in a further data set. The experiment in a line: filter. The note with it: chain copies: 2 (inferred, homodimer). The source holds these as a separate data set.
With B24, the binding signal is 1 x Kd of 21a-4.

With B25, the binding signal was > 100 x Kd of 21a-4.

For B26, the binding signal is > 100 x Kd of 21a-4.

For B27, the binding signal is 1 x Kd of 21a-4.

On to B28, for which the binding signal was > 100 x Kd of 21a-4.

For B29, the binding signal is > 100 x Kd of 21a-4.

On to B30, for which the binding signal is 30 x Kd of 21a-4.

The target is the same in a further data set. The experiment in a line: filter. The note with it: chain copies: 2 (inferred, homodimer). The source holds these as a separate data set.
In the case of B31, the binding signal is 1 x Kd of NX22284.

Take B32: the binding signal is 1 x Kd of NX22284.

With B33, the binding signal is 2 x Kd of NX22284.

For the molecule B34, the binding signal was 1 x Kd of NX22284.

For B35, the binding signal is 1 x Kd of NX22284.

As for B36, the binding signal is 1 x Kd of NX22284.

In the case of B37, the binding signal was 1 x Kd of NX22284.

With B38, the binding signal is 2 x Kd of NX22284.

Turning to B39, the binding signal was 1 x Kd of NX22284.

B40: the binding signal was 0.3 x Kd of NX22284.

The target is the same in another data set. The experiment in a line: filter. The conditions noted are these: chain copies: 2 (inferred, homodimer). The source holds these as a separate data set.
B41: the binding signal is > 100 x Kd of 14i-1.

On to B42, for which the binding signal is 1 x Kd of 14i-1.

Turning to B43, the binding signal is > 100 x Kd of 14i-1.

Consider B44, for which the binding signal was > 100 x Kd of 14i-1.

Regarding B45, the binding signal was > 100 x Kd of 14i-1.

Take B46: the binding signal is > 100 x Kd of 14i-1.

For the molecule B47, the binding signal was > 100 x Kd of 14i-1.
